Measured values published in patent US20090202980.

T1: amyloid fragment of transthyretin (TTR11)
T1 chain: YTIAALLSPYS

T2: fibrin peptide 85 (FP13), human fibrin α-chain fragment α148-160
T2 chain: KRLEVDIDIKIRS

T3: fibrin peptide 87 (FP10), non-amyloid fragment of human fibrin α-chain(148-157)
T3 chain: KRLEVDIDIK

T4: laminin α1-chain(2097-2108) amyloid core peptide (LAM12)
T4 chain: AASIKVAVSADR

T5: mouse non-amyloidogenic IAPP(20-29) core (ΔmIAPP)
T5 chain: SNNLGPVLPP

T6: fibrin peptide 86 (FP12)
T6 chain: KRLEVDIDIKIR

T7: human IAPP amyloid core fragment (ΔhIAPP)
T7 chain: SNNFGAILSS

T8: human islet amyloid polypeptide, full length (fl-hIAPP)
T8 chain: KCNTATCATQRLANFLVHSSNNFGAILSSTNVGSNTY

T9: recombinant human β2-glycoprotein I (expressed in insect cells), P02749
T9 chain: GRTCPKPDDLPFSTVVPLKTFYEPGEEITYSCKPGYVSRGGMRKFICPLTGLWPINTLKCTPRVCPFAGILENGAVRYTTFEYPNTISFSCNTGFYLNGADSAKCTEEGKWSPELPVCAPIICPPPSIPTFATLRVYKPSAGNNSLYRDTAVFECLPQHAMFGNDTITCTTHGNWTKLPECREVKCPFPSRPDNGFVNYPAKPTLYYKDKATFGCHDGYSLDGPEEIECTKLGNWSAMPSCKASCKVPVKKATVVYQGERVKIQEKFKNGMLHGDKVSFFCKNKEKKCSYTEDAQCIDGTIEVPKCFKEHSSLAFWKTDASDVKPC

T10: β2-glycoprotein I purified from fresh human plasma (in solution), P02749
T10 chain: T9 chain

B1: human factor XII (Hageman factor) (protein)
chain: IPPWEAPKEHKYKAEEHTVVLTVTGEPCHFPFQYHRQLYHKCTHKGRPGPQPWCATTPNFDQDQRWGYCLEPKKVKDHCSKHSPCQKGGTCVNMPSGPHCLCPQHLTGNHCQKEKCFEPQLLRFFHKNEIWYRTEQAAVARCQCKGPDAHCQRLASQACRTNPCLHGGRCLEVEGHRLCHCPVGYTGAFCDVDTKASCYDGRGLSYRGLARTTLSGAPCQPWASEATYRNVTAEQARNWGLGGHAFCRNPDNDIRPWCFVLNRDRLSWEYCDLAQCQTPTQAAPPTPVSPRLHVPLMPAQPAPPKPQPTTRTPPQSQTPGALPAKREQPPSLTRNGPLSCGQRLRKSLSSMTRVVGGLVALRGAHPYIAALYWGHSFCAGSLIAPCWVLTAAHCLQDRPAPEDLTVVLGQERRNHSCEPCQTLAVRSYRLHEAFSPVSYQHDLALLRLQEDADGSCALLSPYVQPVCLPSGAARPSETTLCQVAGWGHQFEGAEEYASFLQEAQVPFLSLERCSAPDVHGSSILPGMLCAGFLEGGTDACQGDSGGPLVCEDQAAERRLTLQGIISWGSGCGDRNKPGVYTDVAYYLAWIREHTVS
B2: recombinant tissue-type plasminogen activator (tPA) (protein)
chain: SYQVICRDEKTQMIYQQHQSWLRPVLRSNRVEYCWCNSGRAQCHSVPVKSCSEPRCFNGGTCQQALYFSDFVCQCPEGFAGKCCEIDTRATCYEDQGISYRGTWSTAESGAECTNWNSSALAQKPYSGRRPDAIRLGLGNHNYCRNPDRDSKPWCYVFKAGKYSSEFCSTPACSEGNSDCYFGNGSAYRGTHSLTESGASCLPWNSMILIGKVYTAQNPSAQALGLGKHNYCRNPDGDAKPWCHVLKNRRLTWEYCDVPSCSTCGLRQYSQPQFRIKGGLFADIASHPWQAAIFAKHRRSPGERFLCGGILISSCWILSAAHCFQERFPPHHLTVILGRTYRVVPGEEEQKFEVEKYIVHKEFDDDTYDNDIALLQLKSDSSRCAQESSVVRTVCLPPADLQLPDWTECELSGYGKHEALSPFYSERLKEAHVRLYPSSRCTSQHLLNRTVTDNMLCAGDTRSGGPQANLHDACQGDSGGPLVCLNDGRMTLVGIISWGLGCGQKDVPGVYTKVTNYLDWIRDNMRP

Tests used:
[1] = target: T1, amyloid fragment of transthyretin …
[2] = target: T2, fibrin peptide 85 (FP13), human fibrin …
[3] = target: T3, fibrin peptide 87 (FP10), non-amyloid …
[4] = target: human amyloid-β peptide Aβ(1-40)
[5] = target: T4, laminin α1-chain(2097-2108) amyloid …
[6] = target: T5, mouse non-amyloidogenic IAPP(20-29) …
[7] = target: endostatin (precipitated, cross-β structure-containing)
fibrin peptide 86 (FP12) = target: T6, fibrin peptide 86 (FP12)
[8] = target: T7, human IAPP amyloid core fragment …
[9] = target: T8, human islet amyloid polypeptide, full …
[10] = target: T9, recombinant human β2-glycoprotein I …
[11] = target: T10, β2-glycoprotein I purified from fresh …

Protein | auto-activation of factor XII (S-2222 conversion) (Aβ(1-40) E22Q) | auto-activation of factor XII (S-2222 conversion) (FP13 K157G) | factor XII activation (Chromozym PK conversion via kallikrein) [1] | factor XII activation (Chromozym PK conversion via kallikrein) [2] | factor XII activation (Chromozym PK conversion via kallikrein) [3] | factor XII activation (Chromozym PK conversion via kallikrein) [4] | factor XII activation (Chromozym PK conversion via kallikrein) [5] | factor XII activation (Chromozym PK conversion via kallikrein) [6] | tPA-mediated plasmin formation (plasminogen activation assay) [7] | tPA-mediated plasmin formation (plasminogen activation assay) [2] | tPA-mediated plasmin formation (plasminogen activation assay) (fibrin peptide 86 (FP12)) | tPA-mediated plasmin formation (plasminogen activation assay) [3] | tPA-mediated plasminogen activation [8] | activation of plasminogen by tPA (S-2251 conversion) [4] | tPA-mediated plasminogen activation [9] | tPA-mediated plasminogen activation [6] | tPA-mediated conversion of plasminogen to plasmin (S-2251 conversion) [10] | tPA-mediated conversion of plasminogen to plasmin (S-2251 conversion) [11]
B1 | the potency of the Aβ(1-40) E22Q is somewhat lower | FP13 K157G and Hb-AGE have a potency to induce auto-activation that is similar to the established surface activator DXS500k | cross-β structure-rich peptides LAM12 and TTR11 stimulate factor XII activation, to a similar extent as kaolin | amyloid-like peptide aggregates of FP13 and Aβ stimulate the activation of factor XII | non-amyloid controls FP10 and mIAPP do not activate factor XII | amyloid-like peptide aggregates of FP13 and Aβ stimulate the activation of factor XII | cross-β structure-rich peptides LAM12 and TTR11 stimulate factor XII activation, to a similar extent as kaolin | non-amyloid controls FP10 and mIAPP do not activate factor XII |  |  |  |  |  |  |  |  |  | 
B2 |  |  |  |  |  |  |  |  | stimulating activity of cross-β structure-containing endostatin on tPA-mediated plasmin formation | peptides 85 and 86, both containing a cross-β structure, do stimulate the formation of plasmin by tPA | peptides 85 and 86, both containing a cross-β structure, do stimulate the formation of plasmin by tPA | peptide 87, which lacks a cross-β structure, does not | Both full-length (fl-hIAPP) and truncated amyloid core (Δ-hIAPP), but not mouse IAPP (Δ-mIAPP), stimulate tPA-mediated plasminogen activation | Aβ potently stimulates the activation of plasminogen by tPA | Both full-length (fl-hIAPP) and truncated amyloid core (Δ-hIAPP), but not mouse IAPP (Δ-mIAPP), stimulate tPA-mediated plasminogen activation | but not mouse IAPP (Δ-mIAPP) | Recombinant β2gpi and not β2gpi purified from fresh plasma, stimulates effectively the tPA-mediated conversion of plasminogen to plasmin | Recombinant β2gpi and not β2gpi purified from fresh plasma, stimulates effectively the tPA-mediated conversion of plasminogen to plasmin
